According to US20080207517A1 (INSTITUT PASTEUR, published 2008):
* marks the point of attachment. BODIPYFLEthylmaleimide = Cc1cc(C)n2c1C=C1C=CC(CCC(=O)NCCN3C(=O)CC(*)C3=O)=[N+]1[B-]2(F)F

B1: BODIPY-TAT-NLM-DR (peptide)
peptide: Ac-C(BODIPYFLEthylmaleimide)YGRKKRRQRRRLKAQADIYKARFQAERHAREK-NH2
SMILES: CC[C@H](C)[C@H](NC(=O)[C@H](CC(=O)O)NC(=O)[C@H](C)NC(=O)[C@H](CCC(N)=O)NC(=O)[C@H](C)NC(=O)[C@H](CCCCN)NC(=O)[C@H](CC(C)C)NC(=O)[C@H](CCCNC(=N)N)NC(=O)[C@H](CCCNC(=N)N)NC(=O)[C@H](CCCNC(=N)N)NC(=O)[C@H](CCC(N)=O)NC(=O)[C@H](CCCNC(=N)N)NC(=O)[C@H](CCCNC(=N)N)NC(=O)[C@H](CCCCN)NC(=O)[C@H](CCCCN)NC(=O)[C@H](CCCNC(=N)N)NC(=O)CNC(=O)[C@H](Cc1ccc(O)cc1)NC(=O)[C@H](CSC1CC(=O)N(CCNC(=O)CCC2=[N+]3C(=Cc4c(C)cc(C)n4[B-]3(F)F)C=C2)C1=O)NC(C)=O)C(=O)N[C@@H](Cc1ccc(O)cc1)C(=O)N[C@@H](CCCCN)C(=O)N[C@@H](C)C(=O)N[C@@H](CCCNC(=N)N)C(=O)N[C@@H](Cc1ccccc1)C(=O)N[C@@H](CCC(N)=O)C(=O)N[C@@H](C)C(=O)N[C@@H](CCC(=O)O)C(=O)N[C@@H](CCCNC(=N)N)C(=O)N[C@@H](Cc1c[nH]cn1)C(=O)N[C@@H](C)C(=O)N[C@@H](CCCNC(=N)N)C(=O)N[C@@H](CCC(=O)O)C(=O)N[C@@H](CCCCN)C(N)=O
B2: BODIPY-Ant-LZ (Mu) (peptide)
peptide: Ac-C(BODIPYFLEthylmaleimide)RQIKIWFQNRRMKWKKLKAQADIYKADFQAERHAREKLVEKKEYSQEQLEQSQREFNKL-NH2
notes: Two L to S mutations at d positions; also called BODIPY-Ant LZ mutant
B3: CC2 (Mu) (peptide)
peptide: Ac-SKGMQLEDLRQQGQQAEEAGVAKQELGDKLKEEAEQHKIV-NH2
notes: As for CC2 (WT), the printed theoretical mass (3987.43 Da) fits residues 6-40 only; also called CC2 mutant
B4: BODIPY-R7-NLM-DR (peptide)
peptide: Ac-C(BODIPYFLEthylmaleimide)RRRRRRRLKAQADIYKARFQAERHAREK-NH2
SMILES: CC[C@H](C)[C@H](NC(=O)[C@H](CC(=O)O)NC(=O)[C@H](C)NC(=O)[C@H](CCC(N)=O)NC(=O)[C@H](C)NC(=O)[C@H](CCCCN)NC(=O)[C@H](CC(C)C)NC(=O)[C@H](CCCNC(=N)N)NC(=O)[C@H](CCCNC(=N)N)NC(=O)[C@H](CCCNC(=N)N)NC(=O)[C@H](CCCNC(=N)N)NC(=O)[C@H](CCCNC(=N)N)NC(=O)[C@H](CCCNC(=N)N)NC(=O)[C@H](CCCNC(=N)N)NC(=O)[C@H](CSC1CC(=O)N(CCNC(=O)CCC2=[N+]3C(=Cc4c(C)cc(C)n4[B-]3(F)F)C=C2)C1=O)NC(C)=O)C(=O)N[C@@H](Cc1ccc(O)cc1)C(=O)N[C@@H](CCCCN)C(=O)N[C@@H](C)C(=O)N[C@@H](CCCNC(=N)N)C(=O)N[C@@H](Cc1ccccc1)C(=O)N[C@@H](CCC(N)=O)C(=O)N[C@@H](C)C(=O)N[C@@H](CCC(=O)O)C(=O)N[C@@H](CCCNC(=N)N)C(=O)N[C@@H](Cc1c[nH]cn1)C(=O)N[C@@H](C)C(=O)N[C@@H](CCCNC(=N)N)C(=O)N[C@@H](CCC(=O)O)C(=O)N[C@@H](CCCCN)C(N)=O
B5: BODIPY-Ant-CC2 (Mu) (peptide)
peptide: Ac-C(BODIPYFLEthylmaleimide)RQIKIWFQNRRMKWKKSKGMQLEDLRQQGQQAEEAGVAKQELGDKLKEEAEQHKIV-NH2
notes: also called CC2 variant
B6: BODIPY-R9-NLM-DR (peptide)
peptide: Ac-C(BODIPYFLEthylmaleimide)RRRRRRRRRLKAQADIYKARFQAERHAREK-NH2
SMILES: CC[C@H](C)[C@H](NC(=O)[C@H](CC(=O)O)NC(=O)[C@H](C)NC(=O)[C@H](CCC(N)=O)NC(=O)[C@H](C)NC(=O)[C@H](CCCCN)NC(=O)[C@H](CC(C)C)NC(=O)[C@H](CCCNC(=N)N)NC(=O)[C@H](CCCNC(=N)N)NC(=O)[C@H](CCCNC(=N)N)NC(=O)[C@H](CCCNC(=N)N)NC(=O)[C@H](CCCNC(=N)N)NC(=O)[C@H](CCCNC(=N)N)NC(=O)[C@H](CCCNC(=N)N)NC(=O)[C@H](CCCNC(=N)N)NC(=O)[C@H](CCCNC(=N)N)NC(=O)[C@H](CSC1CC(=O)N(CCNC(=O)CCC2=[N+]3C(=Cc4c(C)cc(C)n4[B-]3(F)F)C=C2)C1=O)NC(C)=O)C(=O)N[C@@H](Cc1ccc(O)cc1)C(=O)N[C@@H](CCCCN)C(=O)N[C@@H](C)C(=O)N[C@@H](CCCNC(=N)N)C(=O)N[C@@H](Cc1ccccc1)C(=O)N[C@@H](CCC(N)=O)C(=O)N[C@@H](C)C(=O)N[C@@H](CCC(=O)O)C(=O)N[C@@H](CCCNC(=N)N)C(=O)N[C@@H](Cc1c[nH]cn1)C(=O)N[C@@H](C)C(=O)N[C@@H](CCCNC(=N)N)C(=O)N[C@@H](CCC(=O)O)C(=O)N[C@@H](CCCCN)C(N)=O
B7: BODIPY-Ant-LZ (WT) (peptide)
peptide: Ac-C(BODIPYFLEthylmaleimide)RQIKIWFQNRRMKWKKLKAQADIYKADFQAERHAREKLVEKKEYLQEQLEQLQREFNKL-NH2
notes: Synthetic peptide; elutes as a monomer in gel filtration at 10 uM
B8: BODIPY-Ant-CC2 (WT) (peptide)
peptide: Ac-C(BODIPYFLEthylmaleimide)RQIKIWFQNRRMKWKKSKGMQLEDLRQQLQQAEEALVAKQELIDKLKEEAEQHKIV-NH2
notes: Synthetic peptide; elutes as a monomer in gel filtration at 10 uM; also called Ant-CC2 BODIPY peptide
B9: BODIPY-Ant-NLM-DR (peptide)
peptide: Ac-C(BODIPYFLEthylmaleimide)RQIKIWFQNRRMKWKKLKAQADIYKARFQAERHAREK-NH2
SMILES: CC[C@H](C)[C@H](NC(=O)[C@H](CC(=O)O)NC(=O)[C@H](C)NC(=O)[C@H](CCC(N)=O)NC(=O)[C@H](C)NC(=O)[C@H](CCCCN)NC(=O)[C@H](CC(C)C)NC(=O)[C@H](CCCCN)NC(=O)[C@H](CCCCN)NC(=O)[C@H](Cc1c[nH]c2ccccc12)NC(=O)[C@H](CCCCN)NC(=O)[C@H](CCSC)NC(=O)[C@H](CCCNC(=N)N)NC(=O)[C@H](CCCNC(=N)N)NC(=O)[C@H](CC(N)=O)NC(=O)[C@H](CCC(N)=O)NC(=O)[C@H](Cc1ccccc1)NC(=O)[C@H](Cc1c[nH]c2ccccc12)NC(=O)[C@@H](NC(=O)[C@H](CCCCN)NC(=O)[C@@H](NC(=O)[C@H](CCC(N)=O)NC(=O)[C@H](CCCNC(=N)N)NC(=O)[C@H](CSC1CC(=O)N(CCNC(=O)CCC2=[N+]3C(=Cc4c(C)cc(C)n4[B-]3(F)F)C=C2)C1=O)NC(C)=O)[C@@H](C)CC)[C@@H](C)CC)C(=O)N[C@@H](Cc1ccc(O)cc1)C(=O)N[C@@H](CCCCN)C(=O)N[C@@H](C)C(=O)N[C@@H](CCCNC(=N)N)C(=O)N[C@@H](Cc1ccccc1)C(=O)N[C@@H](CCC(N)=O)C(=O)N[C@@H](C)C(=O)N[C@@H](CCC(=O)O)C(=O)N[C@@H](CCCNC(=N)N)C(=O)N[C@@H](Cc1c[nH]cn1)C(=O)N[C@@H](C)C(=O)N[C@@H](CCCNC(=N)N)C(=O)N[C@@H](CCC(=O)O)C(=O)N[C@@H](CCCCN)C(N)=O

How the values were obtained:
[1] = molecular target: T1, NEMO (NF-kB essential modulator), murine (murine, UniProt O88522 1-412); assay: cell-based or functional assay
T1 sequence (O88522 other isoform, or with tags, fused parts or gaps): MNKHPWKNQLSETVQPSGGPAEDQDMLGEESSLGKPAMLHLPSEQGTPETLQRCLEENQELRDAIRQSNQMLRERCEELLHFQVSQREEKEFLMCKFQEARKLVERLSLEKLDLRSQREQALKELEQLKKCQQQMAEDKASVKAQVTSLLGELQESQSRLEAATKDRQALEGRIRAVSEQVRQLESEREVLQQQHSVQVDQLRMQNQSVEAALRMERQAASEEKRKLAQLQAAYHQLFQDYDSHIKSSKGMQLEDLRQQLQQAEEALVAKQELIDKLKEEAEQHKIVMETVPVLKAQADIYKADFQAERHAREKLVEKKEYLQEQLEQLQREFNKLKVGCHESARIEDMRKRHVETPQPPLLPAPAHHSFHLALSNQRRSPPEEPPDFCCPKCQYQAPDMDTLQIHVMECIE

[2] = molecular target: the molecule itself; assay: gel filtration (Superdex 75), self-association
Description: The oligomeric states of peptides were determined by filtration as described in Traincard et al., 2003. In brief, 500 μl samples were loaded on a SUPERDEX™ 75 HR 10/30 column equilibrated in 50 mM Tris-HCl pH 8.0 containing 200 mM NaCl and 0.1 mM DDM, at a constant flow rate of 0.4 ml/min. The presence of the DDM detergent was added in the equilibrium buffer to minimize the adsorption in the column and to increase the peptide recovery. The column was calibrated in the same equilibrium buffer with blue dextran 2000 (void volume), dithioerythritol (total volume), bovine serum albumin (67 kDa, Rs=35.2 Å), ovalbumine (43 kDa, Rs=27.5 Å), chymotrypsinogen A (25 kDa, Rs=21.1 Å), ribonuclease A (13.7 kDa, Rs=16.4 Å), cytochrome C (12.4 kDa, Rs=17.7 Å) and aprotinin (6.5 KDa, Rs=13.5 Å).

[3] = molecular target: T1, NEMO (NF-kB essential modulator), murine; assay: cell-based or functional assay; remark: listed apart in the source
CC2 (WT) [4] = molecular target: T2, CC2 (WT) (murine, N-terminal acetyl group; C-terminal amide); assay: fluorescence anisotropy, 1 µM BODIPY-Ant-CC2 titrated with CC2
T2 construct: Forms a trimer at 10 uM in gel filtration; also called CC2 peptide; CC2 wild type
T2 peptide: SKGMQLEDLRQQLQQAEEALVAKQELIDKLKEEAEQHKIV
Description: (§1) (A) Direct titration of BODIPY-Ant-CC2 (1 μM) with CC2 by fluorescence anitropy. The concentration of CC2 was determined by amino acid analysis. Anisotropy values of BODIPY-Ant-CC2 in milliunits (mA) were plotted against an increasing concentration of the CC2 peptide. […] The two dashed lines represent a stoichiometric titration and intersect at an CC2 concentration of […]. Given the 1 μM concentration of the BODIPY-Ant-CC2, this gives a complex stoechiometrie of 0.8. (B) Direct titration of BODIPY-Ant-LZ (0.1 μM) with CC2 by fluorescence anitropy. The anisotropy values of the BODIPY-Ant-LZ alone (white bar) or in the presence of the CC2 peptide (30 μM, grey bar; 100 μM, black bar) are given in milliunits (mA).
(§2) Anisotropy measurements were performed with a PTI […]™ fluorometer equipped with polarizers for the excitation and emission beams. This instrument uses a PMT in the L-configuration. […] Steady-state fluorescence anisotropy was expressed as millianisotropy (mA) and was calculated according to the equations: (1) A=(IVV−GIVH)/(IVV+2GIVH); (2) G=IHV/IHH.; where A is anisotropy, G is a correction factor for wavelength-dependent distortion and I is the fluorescence intensity component (subscript referring to the vertical and horizontal positioning at the excitation and emission polarizers, respectively). […]

CC2 (WT) [5] = molecular target: T2, CC2 (WT); assay: fluorescence anisotropy, 1 µM BODIPY-Ant-CC2 titrated with 1-125 µM CC2
Description: as §1, §2

Row | Binder | IC 50 (inhibition of NF-κB activation pathway) [1] | binding result [2] | other results
1 | B1 | 1000 nM | – | –
2 | B2 | – | no binding (tested: 10 µM) | –
3 | B3 | – | no binding (tested: 10 µM) | –
4 | B4 | 900 nM | – | –
5 | B5 | – | no binding (tested: 10 µM) | –
6 | B6 | 900 nM | – | –
7 | B7 | – | no binding (tested: 10 µM) | IC50 of inhibition of LPS-induced NF-κB activation (β-galactosidase reporter, 70Z3-C3 cells) [3]: 3000 nM; fold reduction of LPS-induced NF-κB activation at 10 µM peptide (stringent β-galactosidase assay, 70Z3-C3 cells) [3]: 5.8 fold
8 | B8 | – | no binding (tested: 10 µM) | IC50 of inhibition of LPS-induced NF-κB activation (β-galactosidase reporter, 70Z3-C3 cells) [3]: 22000 nM; fold reduction of LPS-induced NF-κB activation at 10 µM peptide (stringent β-galactosidase assay, 70Z3-C3 cells) [3]: 1.7 fold; stoichiometry (CC2 (WT) [4]): 0.8; Kd (CC2 (WT) [5]): 15200 nM
9 | B9 | 1100 nM | – | –
